The values below come from patent publication EP1876240B1 (MOCHIDA PHARMACEUTICAL CO., LTD., dated 2012).

Test [1] has as its target T1, human GPVI extracellular region-human Fc fusion protein (hGPVI-hFc) (human).
T1 construct: expressed in COS-1, Protein A purified; also called GPVI-HHH-hFc; hGPVIHHH-hFc
The experiment in a line: SPR (BIACORE3000), GPVI-hFc coupled to CM5 chip, antibody 1.25-40 nM, bivalent analyte fit. (In general: Surface plasmon resonance follows binding to a sensor surface in real time, without labels.)
Target sequence in this assay (chain, as listed by the source limits assumed): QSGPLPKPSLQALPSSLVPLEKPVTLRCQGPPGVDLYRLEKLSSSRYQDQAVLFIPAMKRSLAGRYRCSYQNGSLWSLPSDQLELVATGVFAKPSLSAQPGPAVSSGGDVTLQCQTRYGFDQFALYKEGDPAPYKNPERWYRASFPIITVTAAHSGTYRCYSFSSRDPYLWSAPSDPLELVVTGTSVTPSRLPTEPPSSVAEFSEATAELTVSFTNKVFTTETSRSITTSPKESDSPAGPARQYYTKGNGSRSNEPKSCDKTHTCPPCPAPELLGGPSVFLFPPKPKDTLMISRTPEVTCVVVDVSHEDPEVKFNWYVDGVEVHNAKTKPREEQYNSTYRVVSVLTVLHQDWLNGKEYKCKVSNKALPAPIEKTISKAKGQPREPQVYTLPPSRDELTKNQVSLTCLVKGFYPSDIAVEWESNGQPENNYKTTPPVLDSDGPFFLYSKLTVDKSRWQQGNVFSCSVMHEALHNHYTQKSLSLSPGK

Test [2] deals with cynomolgus monkey D1D2-human D3 chimeric GPVI-human Fc fusion protein (GPVI-FFH-hFc) (cynomolgus monkey (D1, D2) and human …). The test is described as above.
Chain of cynomolgus monkey D1D2-human D3 chimeric GPVI-human Fc fusion protein (GPVI-FFH-hFc) (cynomolgus monkey (D1, D2) and human …) (chain, as listed by the source mutant limits assumed): as the sequence (chain, as listed by the source limits assumed) above, with S2R, S61H, L78P, R166G, V181M, P442S counted along it
In test [3] the target is T1, human GPVI extracellular region-human …. As to the kind of experiment: SPR (BIACORE3000) as in Example 5.
In test [4] the target is T2, GPVI on cynomolgus monkey platelets (cynomolgus monkey, UniProt A0A2K5VXN2 21-318).
T2 construct: whole, on cells; also called simian platelets
T2 sequence (A0A2K5VXN2 entry or part of it): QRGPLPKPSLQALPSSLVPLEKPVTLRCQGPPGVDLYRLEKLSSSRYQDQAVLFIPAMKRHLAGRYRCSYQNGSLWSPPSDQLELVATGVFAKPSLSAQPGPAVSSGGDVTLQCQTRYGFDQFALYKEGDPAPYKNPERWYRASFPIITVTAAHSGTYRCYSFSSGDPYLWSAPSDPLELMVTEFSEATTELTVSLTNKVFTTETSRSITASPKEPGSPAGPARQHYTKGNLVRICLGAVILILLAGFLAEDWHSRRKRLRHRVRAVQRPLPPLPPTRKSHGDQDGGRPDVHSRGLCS
As to the kind of experiment: homologous competitive binding of [125I]-labeled and non-labeled antibody on washed cynomolgus platelets (n=3, mean±S.E.).

The target in another test is T3, GPVI on human platelets (human, UniProt Q9HCN6 21-339).
T3 construct: whole, on cells
T3 sequence (looked up): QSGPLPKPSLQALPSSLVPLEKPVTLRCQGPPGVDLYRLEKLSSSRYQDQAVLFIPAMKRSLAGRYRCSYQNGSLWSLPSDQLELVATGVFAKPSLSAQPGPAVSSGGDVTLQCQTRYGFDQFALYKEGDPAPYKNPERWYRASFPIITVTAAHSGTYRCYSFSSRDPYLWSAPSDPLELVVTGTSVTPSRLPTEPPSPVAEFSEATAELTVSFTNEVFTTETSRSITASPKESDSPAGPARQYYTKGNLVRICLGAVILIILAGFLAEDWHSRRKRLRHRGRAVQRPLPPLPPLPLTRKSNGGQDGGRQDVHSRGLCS
The experiment in a line: homologous competitive binding of [125I]-labeled and non-labeled antibody on washed human platelets (n=3, mean±S.E.).

B1: F1232-37-2 (antibody, V domains shown)
VH: VQLQQSGPELVRPGESVKISCKGSGYTFTDYAIHWVKLSHAKSLEWIGVISIYYDDTNYNQKFKGKATMTVDKSSSTAYLELARLTSEDSAIYYCARRRDSSGPYAMDYWGQGTSVTVSS
VL: DIVLTQSPASLAVSLGQRATISCRASESVDSYGNSFMHWYQQKPGQPPKLLIYRASNLESGIPARFSGSGSRTDFTLTINPVEADDVATYYCQQSNEDPYTFGGGTKLEIKR
notes: mouse monoclonal antibody from hybridoma; also called F1232-37-2 (whole antibody)
Consider B1, for which the results for the Kd in test [1] and in test [2] were 0.403 nM and 1 nM, respectively. Besides, the “KD (Relative value) against F1232-37-2” value in test [3] was 1 relative to KD of F1232-37-2.

B2: F1201-18 (antibody, V domains shown)
VH: VQLVESGGGLVKPGGSLKLSCAASGFTFSSYAMSWVRQTPEKRLEWVAIISSGGSYTYYPDSVKGRFTISRDNAKNTLYLHMSSLRSEDTAMYYCARQGGGYFDYWGQGTTLTVSS
VL: DIVLTQSPASLAVSLGQRATISCRASESVDSYGNSFMHWYQQKPGQPPKLLIYRASNVESGIPARFSGSGSRTDFTLTINPVEADDVATYYCQQSNEDPPTFGAGTKLELKR
notes: mouse monoclonal antibody from hybridoma
With B2, in test [1], the Kd stood at 1.16 nM.

B3: F1232-24-1 (antibody, V domains shown)
VH: VQLQQSGAELVRPGVSVKISCKGSGYTFTDYAMHWVKQSHAKSLEWIGVISTYYGDASYNQKFKGKATMTVDKSSSTAYMELARLTSEDSAIYYCARSYDYDPWFAYWGQGTLVTVSA
VL: DIVLTQSPASLAVSLGQRATISCRASESVDNYGISFMHWYQQKPGQPPKLLIYRASNLESGIPARFSGSGSRTDFTLTINPVETDDVATYYCQQSNKDPLTFGAGTKLELKR
notes: as for B2
As for B3, the results for the Kd in test [1] and in test [2] were 0.25 nM and 0.71 nM, respectively.

B4: F1232-18-3 (antibody, V domains shown)
VH: VMLVESGGGLVKPGGSLKLSCAASGFTFSSYAMSWVRQTPEKRLEWVATISSGGSYTYYPDSVKGRFTISRDNAKNTLYLQMSSLRSADTAMYYCARDYGYFDYWGQGTTLTVSS
VL: DIVLTQSPASLAVSLGQRATISCRASESVDNYGISFMHWYQQKPGQPPKLLFYRASNLESGIPARFSGSGSRTDFTLTINPVETDDVATYYCQQSNTDPRTFGGGTKLEIKR
notes: as for B2
For B4, the Kd in test [1] turned out to be 1.65 nM; in test [2] it was 365 nM.

B5: F1232-7-1 (antibody, V domains shown)
VH: VQLQQSGPELVRPGESVKISCKGSGYTFTDYAIHWVKLSHAKSLEWIGVISIYYDDTNYNQKFKGKATMTVDKSSSTAYMELARLTSEDSAIYYCARRRDSSGPYAMDYWGQGTSVTVSS
VL: DIVLTQSPASLAVSLGQRATISCRASESVDSYGNSFMHWYQQKPGQPPKLLIYRASNLESGIPARFSGSGSRTDFTLTINPVEADDVATYYCQQSNEDPYTFGGGTKLEIKR
notes: as for B2
On to B5, for which, in test [2], the Kd amounted to 343 nM.

B6: F1249-3-2 (antibody, V domains shown)
VH: EVQLVESGGGLVKPGGSLKLSCAASGFTFSSYGMSWVRQTPDKRLEWVATISSGGSYTYYSDSVKGRFTISRDNAKNNLYLQLSSLKSQDTAIYYCARDSGYFDYWGQGTTLTVSS
VL: NIVLTQSPASLAVSLGQRATISCRASESVDSYGNSFMHWYQQKPGQPPKLLIYLASNLESGVPARFSGSGSRTDFTLTIDPVEADDAATYYCQQNNEDPRTFGGGTKLEIKR
With B6, the “KD (Relative value) against F1232-37-2” value in test [3] was 1.59 relative to KD of F1232-37-2.

B7: cF1232-37-2/CHO (antibody, V domains shown)
VH: VQLQQSGPELVRPGESVKISCKGSGYTFTDYAIHWVKLSHAKSLEWIGVISIYYDDTNYNQKFKGKATMTVDKSSSTAYLELARLTSEDSAIYYCARRRDSSGPYAMDYWGQGTSVTVSS
VL: DIVLTQSPASLAVSLGQRATISCRASESVDSYGNSFMHWYQQKPGQPPKLLIYRASNLESGIPARFSGSGSRTDFTLTINPVEADDVATYYCQQSNEDPYTFGGGTKLEIKR
notes: also called cF1232-37-2 expressed by CHO cells
With B7, the results for the Kd (in test [4]; in the test with GPVI on human platelets) were 20 nM and 17 nM, respectively.

B8: F1232-17-1 (antibody, V domains shown)
VH: VQLVESGGDLVKPGGSLKLSCAASGFTFSSYGMSWVRQTPDKRLEWVATISSGGSYTYYPDNVKGRFTISRDNAKNTLYLQMSSLNSEDTAMYYCARQVYYFGSCDYWGQGTTLTVSS
VL: DIVLTQSPASLAVSLGQRATISCRASESVDNYGISFMHWYQQKPGQPPKLLIYRASNLESGIPARFSGSGSRTDFTLTINPVETDDVATYYCQQSNKDPWTFGGGTKLEIKR
notes: as for B2
As for B8, the Kd is 0.522 nM in test [1] and 0.177 nM in test [2].
